Assays:
[1] = tested on: Rac1 activity in A549 cells; experiment: Rac1 activity assay (affinity isolation of GTP-bound Rac1) in A549 cells; format: cell-based, human; conditions: A549 cells treated with PSI or stably expressing PKCι(1-113); FIG. 12E
Description: Rac 1 Activity Assays: Rac1 activity in A549 and H1299 cell transfectants was assessed by affinity isolation of GTP-bound Rac1 using binding domains of PAK as described previously (Sander et al., J. Cell Biol., 143(5):1385-98 (1998)). Briefly, cells were lysed in lysis buffer (50 mM Tris-HCl pH 7.5, 150 mM NaCl, 20 mM MgCl2, 5 mM EGTA, 10% glycerol, 1% Triton X-100, 1% NP-40, 25 mM NaF, 1 mM phenylmethylsulfonyl fluoride, 1 mM sodium orthovanadate, 10 μg/ml leupeptin, 10 μg/ml aprotinin) at 4° C. for 5 min. Cellular debris was removed by centrifugation at 20,000×g for 5 min, and supernatants were transferred to new tubes containing 20 μl of GST-p21-binding domain of PAK1 (PAK1-PBD) coupled to agarose beads (Upstate). An aliquot of each supernatant was reserved to determine total Rac1 and actin expression by immunoblot analysis. Following a 30-minute incubation at 4° C., the agarose beads were collected by centrifugation and washed three times in wash buffer (50 mM Tris-HCl pH 7.5, 150 mM NaCl, 20 mM MgCl2, 5 mM EGTA, 10% glycerol, 1% Triton X-100, 1% NP-40, 25 mM NaF, 1 mM phenylmethylsulfonyl fluoride, 1 mM sodium orthovanadate, 10 μg/ml leupeptin, 10 μg/ml aprotinin). Bound polypeptides were solubilized by the addition of 30 μl of SDS sample buffer, resolved by SDS-PAGE, and subjected to immunoblot analysis for Rac1. An equivalent aliquot of the total cell lysate was subjected to immunoblot analysis to determine total Rac1 expression.
Rac 1 Activity Assays: A549 cells were incubated with the indicated concentration of ATG for one hour prior to analysis. Rac1 activity in A549 cells was assessed by affinity isolation of GTP-bound Rac1 using binding domains of PAK as described elsewhere (Sander et al., J. Cell Biol., 143:1385-98 (1998)). Briefly, cells were lysed in lysis buffer (50 mM Tris-HCl pH 7.5, 150 mM NaCl, 20 mM MgCl2, 5 mM EGTA, 10% glycerol, 1% Triton X-100, 1% NP-40, 25 mM NaF, 1 mM phenylmethylsulfonyl fluoride, 1 mM sodium orthovanadate, 10 μg/ml leupeptin, and 10 μg/ml aprotinin) at 4° C. for 5 min. […]

A549 cells [2] = experiment: Cell invasion through Matrigel-coated chambers, A549 transfectants; format: cell-based, human; conditions: A549 cells expressing PKCι(1-113) versus A549/LZRS; FIG. 12F
Description: Cell Invasion and Soft Agar Growth Assays: A549 and H1299 transfectants were assayed for cell invasion using Matrigel-coated Transwell cell culture chambers (6,5-mm diameter, 8-μm pore size; BD Biosciences). A549 and H1299 cell transfectants in logarithmic growth phase were harvested with trypsin, the trypsin neutralized with serum-containing medium, and the cells pelleted and resuspended in serum-free growth medium. 2.5×10^4 cells were placed into the upper chamber of the Transwell insert, and growth medium containing 10% FBS was added to the lower chamber. After 22 hours at 37° C. in 5% CO2, non-invasive cells in the upper chambers were removed and invasive cells were fixed in 100% methanol and stained with 0.5% crystal violet (Sigma) in 2% ethanol. Cells which had invaded through the Matrigel-coated filter were counted on a microscope (X40, Olympus) using a calibrated ocular grid.

RIE/Ras cells = experiment: Soft agar colony formation of RIE/Ras cells; format: cell-based, rat; conditions: RIE/Ras/PKCι(1-113) versus RIE/Ras cells; FIG. 9
Excerpt: To assess anchorage-independent growth, RIE cell transfectants were suspended in DMEM supplemented with 10% FBS, 1.5% agarose, and a 1% insulin, transferrin and selenium solution (Sigma-Aldrich), and plated (300 cells/60 mm dish) on a layer of 1.5% agar containing the same medium. Cell colonies were fixed with 20% methanol and stained with Giemsa after 7-14 days in culture and quantified under a dissecting microscope.

A549 cells [3] = experiment: Soft agar growth assay (anchorage-independent growth) of A549 cells; format: cell-based, human; conditions: A549 cells expressing PKCι(1-113) versus A549/LZRS; FIG. 12G
Description: (§1) Anchorage-independent growth was assayed by the ability of cells to form colonies in soft agar. The bottom agar consisted of growth medium containing 10% FBS and 0.75% agarose in 60-mm tissue culture dishes. Nine hundred cells were resuspended in growth medium containing 10% FBS and 0.75% agarose, and plated on top of the bottom agar. The cells were incubated at 37° C. in 5% CO2. Cell colonies were visualized and quantified under a dissecting microscope (Olympus) after 4-6 weeks in culture.
as §1, with “Soft Agar Growth Assays: Anchorage-independent growth” for “Anchorage-independent growth”, “and 0.75% agarose and plated” for “and 0.75% agarose, and plated”, “bottom agar. ATG was added at the indicated concentration to both bottom and top agar solutions. The cells” for “bottom agar. The cells”

B1: PKCι(1-113): first 113 amino acids of PKCι, encompassing the PB1 domain, expressed in cells from a plasmid (protein)
chain: MPTQRDSSTMSHTVAGGGSGDHSHQVRVKAYYRGDIMITHFEPSISFEGLCNEVRDMCSFDNEQLFTMKWIDEEGDPCTVSSQLELEEAFRLYELNKDSELLIHVFPCVPERP
Rac1 activity [1]: inhibits Rac1 activity | A549 cell invasion (A549 cells [2]): inhibits | soft agar colony formation (RIE/Ras cells): significantly less soft agar colony formation | anchorage-independent growth in soft agar (A549 cells [3]): inhibits

Reference: patent US7642400B2, “Protein kinase C iota” (Mayo Foundation for Medical Education and Research, priority 2004, dated 2010)
